Several values for one entry are separate records, joined by “and”; a condition that tells them apart may be missing. Equal values may be shown once. Square brackets hold non-standard residues; d marks the D form. Ends that are not written are not given here. dCha = N[C@H](CC1CCCCC1)C(=O)O; dNle = CCCC[C@@H](N)C(=O)O
T1: Tau40 P301L protein (human)
T1 sequence: WIKIRR


Each binder was assayed against T1, Tau40 P301L protein (human) (assay: cell-based or functional assay).

IC50, Tau40 assay (ThT) [µM] | Binder
1.43 | [dL][dK][dI][dR][dNle][dH][dY] [lkiruhy (PEPTIDE ID NO: 267)]
1.25 | [dW][dR][dNle][dK][dV][dR][dW] [wrukvrw (PEPTIDE ID NO: 258)]
1.16 | [dL][dK][dCha][dR][dI][dH][dY] [lkbrihy (PEPTIDE ID NO: 252)]
1.59 | [dL][dK][dNle][dR][dI][dH][dY] [lkurihy (PEPTIDE ID NO: 279)]
1.63 | [dNle][dR][dL][dK][dV][dR][dW] [urlkvrw (PEPTIDE ID NO: 282)]

The binders below were run against Tau40 P301L protein (human) (assay: cell-based or functional assay).

IC50, Tau40 assay (ThT) | Binder
6.9 µM | [dK][dL][dK][dI][dV][dW] [klkivw]
8.93 µM | [dW][dR][dT][dK][dT][dR][dW] [wrtktrw]
6.67 µM | [dW][dR][dL][dK][dV][dE][dW] [wrlkvew]
7.19 µM and 7.53 µM | [dF][dK][dL][dH][dL][dK][dH][dY] [fklhlkhy]
12.5 µM | [dL][dK][dT][dR][dI][dH][dY] [lktrihy]
7.64 µM | [dW][dW][dL][dK][dL][dR][dW][dW] [wwlklrww]
19 µM and 19.8 µM | [dW][dK][dV][dP][dV][dR][dY][dW] [wkvpvryw]
12.7 µM | [dW][dR][dA][dK][dA][dR][dW] [wrakarw]
11.7 µM and 12.2 µM | [dF][dR][dL][dK][dI][dR][dW] [frlkirw]
9.32 µM | [dI][dL][dK][dI][dV][dW] [ilkivw]
10 µM | [dW][dE][dL][dK][dV][dE][dW] [welkvew]
7.01 µM | [dR][dL][dK][dV][dW][dW] [rlkvww]
10.4 µM and 10.6 µM | [dW][dK][dV][dW]G[dK][dV][dW] (not fully specified (residue 5); printed as wkvwgkvw) [wkvwgkvw]
19.7 µM | [dL][dE][dF][dE][dL][dK][dY][dW] [lefelkyw]
19.5 µM | [dL][dK][dI][dA][dI][dH][dY][dH] [lkiaihyh]
10 µM | [dW][dR][dL][dR][dI][dH][dE] [wrlrihe]
8.02 µM | [dR][dL][dW][dV][dR][dW] [rlwvrw]
6.72 µM | [dV][dK][dV][dW]G[dR][dL][dW] (not fully specified (residue 5); printed as vkvwgrlw) [vkvwgrlw]
11.7 µM | [dW][dE][dV][dQ][dV][dE][dW] [wevqvew]
15.4 µM | [dL][dK][dR][dR][dI][dH][dY][dH] [lkrrihyh]
8.33 µM and 10.1 µM | [dW][dD][dL][dR][dL][dQ][dY][dW] [wdlrlqyw]
6.97 µM | [dW][dI][dK][dI][dV][dR] [wikivr]
6.86 µM | [dW][dR][dV][dH][dF][dE][dH][dW] [wrvhfehw]
11.2 µM | [dA][dR][dL][dK][dA][dR][dW] [arlkarw]
6.97 µM | [dR][dI][dR][dL][dH][dW] [rirlhw]
8.38 µM | [dA][dW][dA][dK][dV][dR][dW] [awakvrw]
7.42 µM | [dE][dK][dI][dR][dI][dH][dY][dH] [ekirihyh]
8.14 µM | [dL][dK][dI][dR][dI][dE][dY][dH] [lkirieyh]

IC50, Tau40 assay (ThT) | Binder
6.87 µM | [dF][dH][dL][dE][dI][dR][dH][dW] [fhleirhw]
9.91 µM and 10.8 µM | [dW][dK][dL][dK][dL][dW][dW][dW] [wklklwww]
9.7 µM | [dI][dH][dY][dH][dL][dK][dI][dR] [ihyhlkir]
10.3 µM | [dF][dK][dI][dE][dI][dE][dY][dH] [fkieieyh]
14.3 µM and 19.5 µM | [dF][dE][dL][dE][dI][dE][dW][dH] [feleiewh]
19.2 µM | [dW][dR][dH][dK][dH][dR][dW] [wrhkhrw]
12.6 µM | [dA][dR][dA][dR][dI][dH][dW] [ararihw]
7.39 µM | [dI][dR][dI][dH][dY][dH][dL][dK] [irihyhlk]
7.22 µM and 15 µM | [dF][dK][dL][dK][dL][dW][dW][dF] [fklklwwf]
14 µM | [dW][dD][dL][dD][dV][dR][dW] [wdldvrw]
9.9 µM | [dE][dR][dL][dR][dI][dH][dW] [erlrihw]
6.63 µM | [dR][dI][dH][dY][dH][dL][dK][dI] [rihyhlki]
6.87 µM | [dK][dL][dK][dI][dK][dW] [klkikw]
7.92 µM | [dW][dE][dL][dK][dV][dR][dW] [welkvrw]
8.08 µM | [dT][dL][dK][dI][dE][dW] [tlkiew]
15.1 µM | [dW][dR][dL][dK][dV] [wrlkv]
16 µM and 16.6 µM | [dE][dL][dK][dI][dV][dW] [elkivw]
7.46 µM | [dT][dW][dR][dL][dV][dL] [twrlvl]
13.7 µM and 14.3 µM | [dT][dI][dK][dL][dV][dW] [tiklvw]
10.4 µM | [dL][dK][dA][dR][dI][dH][dY][dH] [lkarihyh]
7.28 µM and 7.56 µM | [dF][dW][dL][dR][dI][dH][dW][dF] [fwlrihwf]
18.5 µM | [dW][dR][dL][dK][dV][dR] [wrlkvr]
6.87 µM | [dR][dL][dR][dI][dH][dW] [rlrihw]
6.85 µM and 10.8 µM | [dF][dR][dL][dR][dI][dW][dW][dF] [frlriwwf]
8.42 µM and 14.1 µM | [dW][dK][dV][dW]G[dR][dV][dW] (not fully specified (residue 5); printed as wkvwgrvw) [wkvwgrvw]
19.3 µM | [dW][dR][dE][dK][dV][dR][dW][dW] [wrekvrww]
8.71 µM | [dW][dF][dL][dR][dI][dH][dW] [wflrihw]
